Laboratory results as given in patent US20160264684A1, “GLYCAN-INTERACTING COMPOUNDS AND METHODS OF USE” (SIAMAB THERAPEUTICS, INC., priority 2013, published 2016).
Several values for one entry are separate records, joined by “and”; a condition that tells them apart may be missing. Equal values may be shown once.

Experiments:
[1] = Glycan microarray analysis, 9-O-acetylated AcSTn; assay type: binding
Protocol: (§1) Optimized glycan arrays comprise 71 chemically synthesized and well-defined glycans, most of which comprise Neu5Ac and Neu5Gc glycan pairs.
(§2) 300 ml of epoxy blocking buffer is prepared by combining 15 ml of 2 M Tris buffer (pH 8) with 0.9 ml of 16.6 M ethanolamine and 284.1 ml of distilled water. The solution is filtered using a 0.2 μM nitrocellulose membrane. The epoxy buffer solution as well as 1 L of distilled water are pre-warmed to 50° C. Glass slides are arranged in a slide holder and quickly submerged in a staining tub with the warmed epoxy blocking buffer. Slides are incubated in the epoxy blocking buffer for 1 hour at 50° C. with periodic shaking to deactivate epoxy binding sites. Next, slides are rinsed and blocked with PBS with 1% OVA at 25° C. for one hour. Serum samples are diluted 1:1000 in PBS with 1% OVA and added to the glycan array for one hour at 25° C. After extensive washing, binding of polyclonal serum antibodies are detected by incubating glycan microarray slides with Cy3-conjugated anti-mouse IgG (Jackson Immunoresearch, West Grove, Pa.) for one hour. […]
(§3) 18D2 and 18C7 clones were expanded and binding properties of these hybridomas were determined by glycan microarray analysis according to Example 4. […] No binding to Tn antigen or other glycans was detected.

[2] = Glycan microarray analysis, 9-O-acetylated GcSTn; assay type: binding
Protocol: as §1, §2, §3

[3] = Glycan microarray analysis, Tn antigen or other glycans; assay type: binding
Protocol: as §1, §2, §3

[4] = Glycan array STn specificity and anti-STn antibody group; assay type: binding; parameters: key to Group: Group 1 antibodies according to the invention are antibodies capable of binding AcSTn and GcSTn; Antibodies were assigned to Group 2 based on their ability to bind STn as well as some related structures that include an O-linkage to serine or threonine; Group 3 antibodies are antibodies capable of binding STn, but may also bind a broader set of related structures; Group 4 antibodies are capable of binding to both AcSTn and GcSTn as well as the un-sialylated Tn antigen
Protocol: as §1
300 ml of epoxy blocking buffer is prepared by combining 15 ml of 2 M Tris buffer (pH 8) with 0.9 ml of 16.6 M ethanolamine and 284.1 ml of distilled water. The solution is filtered using a […] nitrocellulose membrane. The epoxy buffer solution as well as 1 L of distilled water are pre-warmed to 50° C. Glass slides are arranged in a slide holder and quickly submerged in a staining tub with the warmed epoxy blocking buffer. Slides are incubated in the epoxy blocking buffer for 1 hour at 50° C. with periodic shaking to deactivate epoxy binding sites. Next, slides are rinsed and blocked with PBS with 1% OVA at 25° C. for one hour. Serum samples are diluted 1:1000 in PBS with 1% OVA and added to the glycan array for one hour at 25° C. After extensive washing, binding of polyclonal serum antibodies are detected by incubating glycan microarray slides with Cy3-conjugated anti-mouse IgG (Jackson Immunoresearch, West Grove, Pa.) for one hour. Slides are then washed extensively, dried and scanned with a Genepix 4000B scanner (Laser at 100%; gain at 350; 10 μm pixels). Raw data from scanned images are extracted using the Genepix software and analysis of raw data is carried out.
Based on characterization data, anti-STn antibodies developed from Group 6 and Group 8 mice were categorized by anti-STn group number. In some cases, antibodies were assigned to Group 1. Group 1 antibodies according to the invention are antibodies capable of binding AcSTn and GcSTn. Such antibodies may have the ability to associate with a wider range of STn structures. The large oval in FIG. 1A indicates the portion of STn recognized by Group 1 antibodies. […] Also listed in the Table is the antibody Isotype for each antibody as determined by the IsoStrip mouse monoclonal antibody isotyping kit (Roche Diagnostics GmbH, Manheim, Germany).

[5] = system: ST6GalNAc 1 transfected MDA-MB-231 cells; assay: Flow cytometry-based analysis of antibody binding, STn+ cells; assay type: cell-based, human
Protocol: Flow cytometry-based analysis is carried out to elucidate the curve-dose response for binding of antibodies to cell surface antigens. For these analyses, three cell lines are employed.
MDA-MB-231 cells are human breast cancer cells. They are grown in Earle's Minimum Essential Medium supplemented with 10% fetal calf serum (FCS), 100 μg/ml penicillin, 100 UI/ml streptomycin and 45 μg/ml gentamycin. MCF-7 cells are also human breast cancer cells and are grown under the same conditions as MDA-MB-231 cells. Stably transfected versions of MDA-MB-231 and MCF-7 cells (clone TAH3.P10 for MDA-MB-231 cells and clone A12.1 for MCF-7 cells) that over express GalNAc α2,6-sialyltransferase (ST6GalNAc 1,) are also cultured under the same conditions with the exception of an added 1 mg/ml of G418 to support cells expressing the transgene. ST6GalNAc 1 is an enzyme capable of sialylating GalNAc. […]
For analysis, cells are harvested using StemPro Accutase (Life Technologies, Carlsbad, Calif.) and washed with PBS comprising 5% FBS before pelleting by light centrifugation. Cell numbers and viability are determined by trypan blue dye exclusion analysis and cell concentrations are adjusted to 5×10^6 cells/ml in PBS with 5% FBS. […] Cells are combined with 50 μl solutions of antibody being analyzed or control antibodies and incubated for 1 hour at 4° C. […]

B1: 18D2: anti-STn monoclonal antibody from mouse #4436; IgG2b κ; heavy chain SEQ ID NO 1, light chains SEQ ID NO 2 and 3 (antibody, V domains shown)
VH: QVTLKESGPGILQPSQTLSLTCSFSGFSLSTSNMGIGWIRQPSGKGLEWLAHIWWHDDKYYNPSLKSRLTISKDISNNQVFLKITSVDTADTATYYCAQVPFYYGTSFDVWGTGTTVTVSS
VL 1: DIVMTQSPATLSVTPGDRVSLSCRASQSISDYLHWYQQKSHESPRLLIKYASQSISGIPSRFSGSGSGSDFTLSINSVEPEDVGVYYCQNGHSFPLTFGAGTKLELK
VL 2: QIVLTQSPAIMSASPGETVTMTCSASSSITYMHWYQQKPGTSPKRWIYDTSKLASGVPARFSGSGSGTSYSLTISSMEAEDAATYYCHQRSSYTFGGGTKLEIKR
**Q.** Which results are given for B1?
**A.** mean fluorescence intensity, Neu5,9Ac2-α2,6-GalNAc [1]: about 4,500; mean fluorescence intensity, Neu5,9Ac5Gc-α2,6-GalNAc [2]: about 4,000; binding to Tn antigen or other glycans [3]: No binding; Glycan Array STn Specificity [4]: 100%; Group ([4]; assigned from flow cytometry and glycan array analysis): 1; EC50, flow cytometry binding to cell-associated STn ([5]; ST6GalNAc 1 transfected MDA-MB-231 cells (STn expressed on MDA cells)): 44.08 nM and 74.51 nM; EC50 ([5]; no unit printed (same values in nM in b551, b556)): 65.8 nM
